Earlier results, collected in publication PMC3439503.

Target: dystrophin N-ABD N-ABD (Homo sapiens) (UniProt P11532)

- Kd: 4 µM
Substance: dystrophin N-ABD N-ABD (from UniProt P11532)
